Measured values taken from the supplement of paper PMC10724198.
± gives the standard deviation of the averaged measurements.

Columns and labels:
Saccharomyces cerevisiae [1] = experiment: protein stability index of tFT-peptide fusion (C-terminal peptide) (PSI (0-1 scale)); higher = more stable (slower turnover); conditions: genetic background: wild type; temperature: 30 C
Saccharomyces cerevisiae [2] = experiment: as above
Protocol: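 MPS profiling in S. cerevisiae of the tFT-X12 degron library: putative degron peptides plus stable controls, 12 aa, fused to the C-terminus of a sfGFP-mCherry timer. Cells are FACS-sorted into 8 mCherry/sfGFP bins and deep-sequenced. PSI runs from 0 (unstable) to 1 (stable). Backgrounds are wild type, das1Δ and doa10Δ at 30 °C, and wild type, das1Δ, cdc34-1 and cdc53-1 at 37 °C; 2-3 technical replicates each.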

[3] = genetic background: cdc34-1, temperature: 37 C
[4] = genetic background: cdc53-1, temperature: 37 C
[5] = genetic background: das1 deletion, temperature: 30 C
[6] = genetic background: das1 deletion, temperature: 37 C
[7] = genetic background: doa10 deletion, temperature: 30 C
[8] = genetic background: wild type, temperature: 30 C
[9] = genetic background: wild type, temperature: 37 C
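Also: PSI is a weighted mean of sequencing reads over stability bins, variants kept only with over 10 reads, mCherry proximal and sfGFP distal, peptide attached via GGGS linker.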

| Sequence | protein stability index (Saccharomyces cerevisiae [1]) | protein stability index (Saccharomyces cerevisiae [2]; [3]) | protein stability index (Saccharomyces cerevisiae [2]; [4]) | protein stability index (Saccharomyces cerevisiae [2]; [5]) | protein stability index (Saccharomyces cerevisiae [2]; [6]) | protein stability index (Saccharomyces cerevisiae [2]; [7]) | protein stability index (Saccharomyces cerevisiae [2]; [8]) | protein stability index (Saccharomyces cerevisiae [2]; [9]) |
| --- | --- | --- | --- | --- | --- | --- | --- | --- |
| LFWWCMVFISLI | 0.3 ± 0.019 | 0.3069 ± 0.0013 | 0.37 ± 0.015 | 0.285 ± 0.041 | 0.413 ± 0.0096 | 0.212 ± 0.017 | 0.231 ± 0.029 | 0.3395 ± 0.00099 |
| LFYVCPFVCFLC | 0.324 ± 0.058 | 0.554 ± 0.044 | 0.6288 ± 0.001 | 0.516 ± 0.017 | 0.61052 ± 9.9e-05 | 0.307 ± 0.0078 | 0.335 ± 0.026 | 0.438 ± 0.033 |
| LGFFPSPVLCVF | 0.275 ± 0.02 | 0.104 ± 0.056 | 0.104 ± 0.027 | 0.197 ± 0.024 | 0.209 ± 0.0036 | 0.171 ± 0.0087 | 0.193 ± 0.018 | 0.175 ± 0.0038 |
| LGGVGTLVHCFV | 0.452 ± 0.053 | 0.615 ± 0.026 | 0.635 ± 0.016 | 0.36 ± 0.022 | 0.607 ± 0.0081 | 0.351 ± 0.013 | 0.375 ± 0.014 | 0.597 ± 0.02 |
| LGRYHPWLLFLC | 0.114 ± 0.027 | 0.261 ± 0.011 | 0.451 ± 0.021 | 0.457 ± 0.035 | 0.614 ± 0.0077 | 0.0687 ± 0.016 | 0.0711 ± 0.025 | 0.104 ± 0.0076 |
| LHSDHLRIILRI | 0.514 ± 0.023 | 0.5966 ± 0.0013 | 0.63 ± 0.036 | 0.567 ± 0.036 | 0.659 ± 0.036 | 0.382 ± 0.018 | 0.376 ± 0.0098 | 0.576 ± 0.022 |
| LIAGTRRIPLFI | 0.406 ± 0.039 | 0.593 ± 0.048 | 0.638 ± 0.022 | 0.515 ± 0.043 | 0.665 ± 0.0049 | 0.225 ± 0.0037 | 0.261 ± 0.053 | 0.466 ± 0.015 |
| LISGVCLRVKVG | 0.346 ± 0.046 | 0.55 ± 0.031 | 0.597 ± 0.017 | 0.452 ± 0.029 | 0.6276 ± 0.00027 | 0.16 ± 0.016 | 0.193 ± 0.015 | 0.3637 ± 0.0019 |
| LKFSLLLPVQVI | 0.3606 ± 0.0013 | 0.327 ± 0.014 | 0.3735 ± 0.0026 | 0.301 ± 0.03 | 0.403 ± 0.0053 | 0.253 ± 0.0088 | 0.283 ± 0.025 | 0.337 ± 0.0053 |
| LLGHLFTMLVIY | 0.308 ± 0.014 | 0.211 ± 0.18 | 0.157 ± 0.023 | 0.286 ± 0.053 | 0.366 ± 0.0077 | 0.397 ± 0.0055 | 0.234 ± 0.019 | 0.311 ± 0.012 |
| LLLLRCLWISHA | 0.244 ± 0.015 | 0.324 ± 0.053 | 0.441 ± 0.029 | 0.319 ± 0.039 | 0.5121 ± 0.0012 | 0.125 ± 0.019 | 0.145 ± 0.026 | 0.258 ± 0.0082 |
| LLPLLFFFLCLP | 0.4989 ± 0.0038 | 0.592 ± 0.058 | 0.584 ± 0.0088 | 0.495 ± 0.035 | 0.5602 ± 0.0049 | 0.462 ± 0.006 | 0.452 ± 0.02 | 0.529 ± 0.014 |
| LLPSPLLLYSLS | 0.451 ± 0.028 | 0.556 ± 0.03 | 0.578 ± 0.019 | 0.434 ± 0.022 | 0.6022 ± 0.0024 | 0.3814 ± 0.0018 | 0.412 ± 0.017 | 0.562 ± 0.015 |
| LLRLCGFPLGVG | 0.4497 ± 0.00073 | 0.466 ± 0.027 | 0.54 ± 0.0086 | 0.488 ± 0.014 | 0.55 ± 0.0049 | 0.41 ± 0.014 | 0.4004 ± 0.002 | 0.51 ± 0.017 |
| LLRLPLLALLFV | 0.111 ± 0.0047 | 0.236 ± 0.028 | 0.227 ± 0.0089 | 0.233 ± 0.026 | 0.356 ± 0.0077 | 0.337 ± 0.02 | 0.222 ± 0.033 | 0.324 ± 0.016 |
| LLSAFPYLPVFA | 0.337 ± 0.0066 | 0.277 ± 0.025 | 0.326 ± 0.048 | 0.251 ± 0.02 | 0.3941 ± 0.0035 | 0.2141 ± 0.00033 | 0.244 ± 0.022 | 0.373 ± 0.044 |
| LLVRSFIFPLVY | 0.367 ± 0.034 | 0.3906 ± 0.0039 | 0.428 ± 0.018 | 0.294 ± 0.053 | 0.482 ± 0.018 | 0.282 ± 0.016 | 0.289 ± 0.013 | 0.441 ± 0.012 |
| LLVVGPVRLVVH | 0.262 ± 0.023 | 0.214 ± 0.019 | 0.259 ± 0.0027 | 0.201 ± 0.034 | 0.346 ± 0.017 | 0.168 ± 0.0078 | 0.18 ± 0.026 | 0.321 ± 0.012 |
| LLYPSKFCITAI | 0.374 ± 0.016 | 0.506 ± 0.024 | 0.559 ± 0.03 | 0.413 ± 0.032 | 0.575 ± 0.016 | 0.248 ± 0.007 | 0.272 ± 0.027 | 0.431 ± 0.0044 |
| LLYYMPELLILT | 0.28 ± 0.018 | 0.152 ± 0.0021 | 0.145 ± 0.028 | 0.208 ± 0.0081 | 0.273 ± 0.0049 | 0.242 ± 0.013 | 0.199 ± 0.025 | 0.264 ± 0.007 |
| LMLIPRLLVGAH | 0.291 ± 0.014 | 0.181 ± 0.034 | 0.172 ± 0.0025 | 0.184 ± 0.029 | 0.2958 ± 0.0022 | 0.152 ± 0.008 | 0.181 ± 0.018 | 0.2523 ± 0.0011 |
| LPFFSFSPWWFY | 0.262 ± 0.033 | 0.773 ± 0.042 | 0.808 ± 0.026 | 0.736 ± 0.04 | 0.817 ± 0.029 | 0.209 ± 0.036 | 0.24 ± 0.036 | 0.497 ± 0.018 |
| LPIFWVWFSVFR | 0.349 ± 0.0062 | 0.232 ± 0.012 | 0.243 ± 0.022 | 0.269 ± 0.035 | 0.445 ± 0.027 | 0.334 ± 0.027 | 0.257 ± 0.034 | 0.3973 ± 0.0026 |
| LPLHPHRSRYLV | 0.21 ± 0.021 | 0.593 ± 0.033 | 0.691 ± 0.018 | 0.674 ± 0.019 | 0.702 ± 0.031 | 0.101 ± 0.015 | 0.0982 ± 0.0075 | 0.203 ± 0.02 |
| LPPPTPRSVLLN | 0.51 ± 0.076 | 0.644 ± 0.039 | 0.737 ± 0.034 | 0.672 ± 0.019 | 0.732 ± 0.015 | 0.296 ± 0.019 | 0.315 ± 0.04 | 0.5546 ± 0.0016 |
| LPSPPSSPPLRP | 0.508 ± 0.019 | 0.6542 ± 0.0027 | 0.57161 ± 0.00026 | 0.597 ± 0.0064 | 0.732 ± 0.045 | 0.5877 ± 0.0035 | 0.599 ± 0.017 | 0.701 ± 0.039 |
| LPSRWVPLPTPA | 0.508 ± 0.016 | 0.5362 ± 0.0003 | 0.569 ± 0.024 | 0.407 ± 0.037 | 0.59 ± 0.004 | 0.38 ± 0.016 | 0.413 ± 0.022 | 0.56219 ± 0.00016 |
| LPTLDCPLHRLF | 0.559 ± 0.084 | 0.694 ± 0.026 | 0.8 ± 0.0093 | 0.641 ± 0.012 | 0.7615 ± 0.0076 | 0.674 ± 0.016 | 0.654 ± 0.0035 | 0.733 ± 0.016 |
| LQCVYFVFFICF | 0.399 ± 0.051 | 0.2682 ± 0.0023 | 0.4 ± 0.016 | 0.266 ± 0.018 | 0.412 ± 0.0067 | 0.235 ± 0.0054 | 0.251 ± 0.015 | 0.37 ± 0.032 |
| LQVPTLRLFVFF | 0.3 ± 0.0049 | 0.584 ± 0.029 | 0.724 ± 0.033 | 0.577 ± 0.02 | 0.698 ± 0.021 | 0.197 ± 0.0017 | 0.224 ± 0.012 | 0.398 ± 0.026 |
